Target: protein A-derived Z-domain of the mAbSelect SuRe resin
Assay: protein A (Z-domain) affinity chromatography, pH-gradient elution

Question: With human IgG1 T307P, L309Q (antibody) as the substance, how does the elution pH from the protein A (Z-domain) column read?
Answer: The elution pH from the protein A (Z-domain) column was 4.48 pH.

Source: article PMC5686111
